According to patent US20050158748:

Tests used:
[1] = molecular target: ribosomal protein S6 (in purified 40S ribosomal subunits from liver)
[2] = molecular target: synthetic peptide representing C-terminus of S6 protein

B1: EE-tag/p70β^S6k (p70β-II isoform, N-terminal EE-tag) (protein)
chain: MAAVFDLDLETEEGSEGEGEPELSPADACPLAELRAAGLEPVGHYEEVELTETSVNVGPERIGPHCFELLRVLGKGGYGKVFQVRKVQGTNLGKIYAMKVLRKAKIVRNAKDTAHTRAERNILESVKHPFIVELAYAFQTGGKLYLILECLSGGELFTHLEREGIFLEDTACFYLAEITLALGHLHSQGIIYRDLKPENIMLSSQGHIKLTDFGLCKESIHEGAVTHTFCGTIEYMAPEILVRSGHNRAVDWWSLGALMYDMLTGSPPFTAENRKKTMDKIIRGKLALPPYLTPDARDLVKKFLKRNPSQRIGGGPGDAADVQRHPFFRHMNWDDLLAWRVDPPFRPCLQSEEDVSQFDTRFTRQTPVDSPDDTALSESANQAFLGFTYVAPSVLDSIKEGFSFQPKLRSPRRLNSSPRVPVSPLKFSPFEGFRPSPSLPEPTELPLPPLLPPPPPSTTAPLPIRPPSGTKKSKRGRGRPGR
in vitro kinase reaction: phosphorylation of S6 protein in 40S subunits [1]: p70β^S6k (p70β-II isoform) phosphorylates the S6 protein in vitro nearly as efficiently as p70α^S6k
in vitro kinase reaction: phosphorylation of the synthetic peptide [2]: p70β^S6k (p70β-II isoform) also phosphorylates this peptide but with slightly lower efficiency than observed with p70α^S6k
